Laboratory results: EP4722370A1

Tests used:
[1] = molecular target: his-tagged DLL3 antigen protein (UniProt Q9NYJ7); assay: flow cytometry; transduced T cells with 3 ug/ml his-tagged DLL3, AF647 secondary antibody
[2] = molecular target: his-tagged DLL3 antigen protein (UniProt Q9NYJ7); assay: flow cytometry; transduced T cells, method of the earlier example (his-tagged DLL3 staining)

UniProt Q9NYJ7, sequence (Q9NYJ7 27-492 limits assumed): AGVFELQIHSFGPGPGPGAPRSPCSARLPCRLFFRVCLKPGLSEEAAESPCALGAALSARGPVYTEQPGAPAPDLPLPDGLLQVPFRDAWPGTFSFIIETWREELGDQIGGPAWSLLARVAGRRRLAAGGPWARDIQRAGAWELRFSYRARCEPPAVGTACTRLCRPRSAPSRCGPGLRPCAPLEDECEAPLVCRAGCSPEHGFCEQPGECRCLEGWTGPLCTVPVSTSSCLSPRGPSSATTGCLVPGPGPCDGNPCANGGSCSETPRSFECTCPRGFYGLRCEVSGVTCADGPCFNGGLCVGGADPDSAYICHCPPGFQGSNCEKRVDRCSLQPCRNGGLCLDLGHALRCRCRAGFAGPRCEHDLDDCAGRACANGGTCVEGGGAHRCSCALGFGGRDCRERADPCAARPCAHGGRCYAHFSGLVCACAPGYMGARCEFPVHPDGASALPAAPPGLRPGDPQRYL

CAR expression level (% of T cells stained with his-tagged DLL3 antigen protein) [1]: 69% | CAR expression level (% of T cells stained with his-tagged DLL3 antigen protein) [2]: 74%
B1: DLL3-CAR09 (protein)
chain: DIVMTQSPLSLPVTPGEPASISCRASQTISDYLHWYLQKPGQSPQLLIKYASQSISGVPDRFSGSGSGSDFTLKISRVEAEDVGVYYCQQGHSFPLTFGQGTKLEIKGGGGSGGGGSGGGGSEVQLVQSGAEVKKPGASVKVSCKASGYTFTSYWMHWVRQAPGQRLEWMGTIYPGNSDTRYNQKFKDRVTITADTSASTAYMELSSLRSEDTAVYYCTRSYDYGDLDYWGQGTTVTVSSAAAIEVMYPPPYLDNEKSNGTIIHVKGKHLCPSPLFPGPSKPFWVLVVVGGVLACYSLLVTVAFIIFWVRSKRSRLLHSDYMNMTPRRPGPTRKHYQPYAPPRDFAAYRSRVKFSRSADAPAYQQGQNQLYNELNLGRREEYDVLDKRRGRDPEMGGKPRRKNPQEGLYNELQKDKMAEAYSEIGMKGERRRGKGHDGLYQGLSTATKDTYDALHMQALPPR
